Positions count from the first letter of the chain named. Names may count otherwise. One block for each binder: values may come before it.
How the values were obtained:
[1] = target: T1, human FcγRIIB (CD32b) on CHO cells (human, UniProt P31994 43-310); assay: flow cytometry on CHO cells stably expressing human FcγRIIB (CD32b), detection with fluorescence-conjugated anti-human F(ab')2 secondary antibody
T1 construct: whole, on cells
T1 sequence (looked up): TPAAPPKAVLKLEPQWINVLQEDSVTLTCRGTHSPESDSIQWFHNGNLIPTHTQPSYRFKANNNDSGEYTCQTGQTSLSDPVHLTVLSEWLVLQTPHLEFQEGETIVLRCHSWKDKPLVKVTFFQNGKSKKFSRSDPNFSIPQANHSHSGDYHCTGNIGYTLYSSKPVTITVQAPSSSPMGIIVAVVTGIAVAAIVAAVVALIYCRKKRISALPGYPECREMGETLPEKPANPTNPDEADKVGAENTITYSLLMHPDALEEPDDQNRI
Description: (§1) Increasing amounts of anti-CD40 human IgG₁ antibodies and their Fc variants were incubated with CHO cells stably expressing different human Fcγ receptors, including FcγRI (CD64), FcγRIIA (CD32a), FcγRIIB (CD32b), and FcγRIIIA (CD16) with either F or V polymorphism. The binding was detected with a fluorescence-conjugated anti-human F(ab′)2 specific secondary antibody (Jackson ImmunoResearch).

[2] = target: T2, human FcγRI (CD64) on CHO cells (human, UniProt P12314 16-374); assay: flow cytometry on CHO cells stably expressing human FcγRI (CD64), detection with fluorescence-conjugated anti-human F(ab')2 secondary antibody
T2 construct: whole, on cells
Description: as §1

[3] = target: T3, human FcγRIIA (CD32a) on CHO cells (human, UniProt P12318 34-317); assay: flow cytometry on CHO cells stably expressing human FcγRIIA (CD32a), detection with fluorescence-conjugated anti-human F(ab')2 secondary antibody
T3 construct: whole, on cells
T3 sequence (looked up): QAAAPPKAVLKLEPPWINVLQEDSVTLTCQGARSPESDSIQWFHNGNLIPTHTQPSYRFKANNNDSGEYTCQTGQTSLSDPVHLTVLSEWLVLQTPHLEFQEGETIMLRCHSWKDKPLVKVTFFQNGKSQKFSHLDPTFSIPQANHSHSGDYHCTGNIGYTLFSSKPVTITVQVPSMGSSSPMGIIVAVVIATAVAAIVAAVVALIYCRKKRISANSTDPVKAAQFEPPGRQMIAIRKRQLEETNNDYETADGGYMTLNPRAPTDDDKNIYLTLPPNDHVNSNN
Description: as §1

[4] = target: T4, human FcγRIIIA (CD16) with V polymorphism on CHO cells (human, UniProt P08637 17-254); assay: flow cytometry on CHO cells stably expressing human FcγRIIIA (CD16V), detection with fluorescence-conjugated anti-human F(ab')2 secondary antibody
T4 construct: whole, on cells; V allotype; also called CD16V
Description: as §1

[5] = target: T5, CD40-human Fc (huFc) fusion protein (Creative BioMart) (human, UniProt P25942 21-193); assay: ELISA: 1 µg/mL CD40-huFc with control huIgG1 on plate coated or not coated with HA-tagged CD40L, detection with HRP anti-human Fc
T5 construct: bought; also called CD40-huFc; not shown: human Fc
Excerpt: (§2) After development with TMB (3, 3′, 5, 5′-tetramethylbenzidine) substrate, the plates were read at OD₄₅₀.

human CD40 on cells = human CD40 on cells (human, UniProt P25942 21-277); assay: cell-based or functional assay
[6] = target: T5, CD40-human Fc (huFc) fusion protein …; assay: competition ELISA: antibody titrated into 1 µg/mL CD40-huFc, mixture added to plate coated with HA-tagged CD40L, bound CD40-huFc detected with HRP anti-human Fc; blocked ligand: CD40L
Excerpt: as §2

T5 sequence (P25942 21-193 limits assumed): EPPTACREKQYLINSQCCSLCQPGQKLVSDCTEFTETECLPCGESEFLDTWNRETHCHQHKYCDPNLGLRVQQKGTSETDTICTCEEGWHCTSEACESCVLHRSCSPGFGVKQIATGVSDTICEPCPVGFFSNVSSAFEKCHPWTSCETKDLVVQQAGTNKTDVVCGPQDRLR
Chain of human CD40 on cells (P25942 21-277 limits assumed): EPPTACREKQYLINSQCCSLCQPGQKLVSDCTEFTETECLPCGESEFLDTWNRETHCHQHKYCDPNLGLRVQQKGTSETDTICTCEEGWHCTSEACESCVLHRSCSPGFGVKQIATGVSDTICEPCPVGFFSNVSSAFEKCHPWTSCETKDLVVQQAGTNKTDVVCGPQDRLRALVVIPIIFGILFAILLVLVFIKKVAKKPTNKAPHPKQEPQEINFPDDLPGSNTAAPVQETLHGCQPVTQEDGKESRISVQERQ
T2 sequence (P12314 16-374): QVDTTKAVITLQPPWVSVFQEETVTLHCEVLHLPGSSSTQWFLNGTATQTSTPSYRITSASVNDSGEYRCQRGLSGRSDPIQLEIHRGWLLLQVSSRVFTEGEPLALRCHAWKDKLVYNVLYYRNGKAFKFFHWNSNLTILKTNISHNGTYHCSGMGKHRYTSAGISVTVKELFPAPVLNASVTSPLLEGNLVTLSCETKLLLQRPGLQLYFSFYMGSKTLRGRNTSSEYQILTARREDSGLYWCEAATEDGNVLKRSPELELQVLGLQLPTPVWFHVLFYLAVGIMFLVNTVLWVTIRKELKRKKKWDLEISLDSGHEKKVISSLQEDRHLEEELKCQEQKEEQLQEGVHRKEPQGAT
T4 sequence (P08637 17-254 F176V): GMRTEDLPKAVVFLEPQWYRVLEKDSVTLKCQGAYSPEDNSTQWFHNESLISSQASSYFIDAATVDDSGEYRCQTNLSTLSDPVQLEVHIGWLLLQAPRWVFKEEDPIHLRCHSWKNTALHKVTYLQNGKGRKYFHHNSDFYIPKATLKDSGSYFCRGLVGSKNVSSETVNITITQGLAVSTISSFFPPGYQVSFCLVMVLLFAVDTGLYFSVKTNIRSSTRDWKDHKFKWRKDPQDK

binding result [1]: binds
EC50 (read off the curve) [2]: ~0.5 µg/mL
binding result [3]: binds
binding result [4]: binds
B1: huAb9-5 human IgG1 V273E variant (antibody)
heavy: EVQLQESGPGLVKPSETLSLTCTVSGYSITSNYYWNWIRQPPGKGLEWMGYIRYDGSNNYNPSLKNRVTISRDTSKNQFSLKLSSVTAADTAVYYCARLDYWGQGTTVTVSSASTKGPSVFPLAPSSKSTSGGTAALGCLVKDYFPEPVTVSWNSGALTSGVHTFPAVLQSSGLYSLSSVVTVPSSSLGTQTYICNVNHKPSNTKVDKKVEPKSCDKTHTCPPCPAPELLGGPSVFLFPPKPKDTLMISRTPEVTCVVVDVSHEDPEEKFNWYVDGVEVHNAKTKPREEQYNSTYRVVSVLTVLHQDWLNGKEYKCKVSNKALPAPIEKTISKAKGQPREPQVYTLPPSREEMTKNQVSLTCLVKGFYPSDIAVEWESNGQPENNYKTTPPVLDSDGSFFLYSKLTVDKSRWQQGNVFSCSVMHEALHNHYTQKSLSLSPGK
light: DAVMTQTPLSLSVTPGQPASISCRSSQSLENTNGNTFLNWYLQKPGQSPQLLIYRVSNRFSGVPDRFSGSGSGTDFTLKISRVEAEDVGVYYCLQVTHVPFTFGQGTKLEIKRTVAAPSVFIFPPSDEQLKSGTASVVCLLNNFYPREAKVQWKVDNALQSGNSQESVTEQDSKDSTYSLSSTLTLSKADYEKHKVYACEVTHQGLSSPVTKSFNRGEC
notes: also called huAb9-5 V273E

binding result [1]: binds
EC50 (read off the curve) [2]: ~0.4 µg/mL
binding result [3]: binds
B2: huAb9-5 human IgG1 V273Y variant (antibody)
heavy: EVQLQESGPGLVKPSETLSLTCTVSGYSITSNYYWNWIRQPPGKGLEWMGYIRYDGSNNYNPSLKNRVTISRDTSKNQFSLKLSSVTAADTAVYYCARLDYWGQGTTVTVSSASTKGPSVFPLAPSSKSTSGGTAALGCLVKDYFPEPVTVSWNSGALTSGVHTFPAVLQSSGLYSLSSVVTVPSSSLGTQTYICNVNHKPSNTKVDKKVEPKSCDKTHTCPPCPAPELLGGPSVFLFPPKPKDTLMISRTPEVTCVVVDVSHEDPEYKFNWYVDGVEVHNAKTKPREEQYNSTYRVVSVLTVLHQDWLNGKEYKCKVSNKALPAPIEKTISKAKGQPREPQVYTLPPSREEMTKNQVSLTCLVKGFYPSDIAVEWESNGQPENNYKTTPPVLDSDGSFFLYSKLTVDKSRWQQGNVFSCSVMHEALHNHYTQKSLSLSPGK
light: B1 light
notes: also called huAb9-5 V273Y

binding result [5]: binds
B3: HA-tagged CD40L (R&D Systems) (ligand)
chain: ENSFEMQKGDQNPQIAAHVISEASSKTTSVLQWAEKGYYTMSNNLVTLENGKQLTVKRQGLYYIYAQVTFCSNREASSQAPFIASLCLKSPGRFERILLRAANTHSSAKPCGQQSIHLGGVFELQPGASVFVNVTDPSQVSHGTGFTSFGLLKL
notes: bought; not shown: HA tag

Maximal activation (OD655) in HEK293 blue CD40 NFκB reporter cells (human CD40 on cells): 0.45 OD655
NFκB activation EC50 (SEAP, OD655) in HEK293 blue CD40 NFκB reporter cells (human CD40 on cells): 0.14 µg/mL
IC50 (read off the curve) [6]: ~0.3 µg/mL
B4: Humanized muAb8 #1 (antibody, V domains shown)
VH: EVQLVQSGAEVKKPGSSVKVSCKASGYTFTDYYINWVRQAPGQGLEWIGWIFPGSGSVYCNEQFKGRATLTVDRSTSTAYMELSSLRSEDTAVYFCASSLGKFAYWGQGTLVTVSS
VL: DIQMTQSPSSLSASVGDRVTITCKASQSVVTAVAWYQQKPGKSPKLLIYSASNRYTGVPSRFSGSGSGTDFTLTISSLQPEDFATYFCQQYSSYPYTFGGGTKVEIK
notes: human IgG1 constant region (natural variants D356E and L358M) and kappa light chain; also called huAb8-1

Maximal activation (OD655) in HEK293 blue CD40 NFκB reporter cells (human CD40 on cells): 0.46 OD655
NFκB activation EC50 (SEAP, OD655) in HEK293 blue CD40 NFκB reporter cells (human CD40 on cells): 0.07 µg/mL
IC50 (read off the curve) [6]: ~0.3 µg/mL
B5: Humanized muAb8 #3 (antibody, V domains shown)
VH: B4 VH with A68V, L70I, R74K, F95Y
VL: B4 VL
notes: human IgG1 constant region (natural variants D356E and L358M) and kappa light chain; also called huAb8-3

Source: patent US20210277137A1 (AbbVie / Abbott, published 2021)
